From patent US6423518B1, “Design and production of mutant 2,5-diketo-D-gluconic acid reductase enzymes with altered cofactor dependency” (Rutgers, the State University, priority 2000, dated 2002)

Columns and labels:
[1] = substrate: O=C(O)C(=O)[C@@H](O)[C@H](O)C(=O)CO; assay: purified protein, by the assay type; format: biochemical, Corynebacterium sp.; conditions: other: Kb = Michaelis constant for 2,5-diketo-D-gluconic acid, cofactor NADH, pH 7.0, 25° C
Experimental: Cells containing plasmids for some of the mutant reductases were grown up on a 1 liter scale using a 10 ml inoculum from a saturated overnight culture. The cells were grown until absorbance of the culture at 600 nm was approximately 1.0. The cells were then induced by adding IPTG to a final concentration of 1 mM. The cells were harvested after growth at 37° C. for 4 hours. The cells were then pelleted by centrifugation and frozen for later use. At a later date, cells were thawed and lysed with the Bug Buster detergent (Novagen) containing Complete Protease Inhibitor Cocktail Tablets (Roche). […]
These reactions were performed in 96-well microtiter plates using a SpectraMax 190 plate reader (Molecular Devices). […] Initial rate data was collected in each well, and a standard curve was generated each day in order to correlate the change in absorbance of the reaction to a change in concentration of cofactors. […]

[2] = substrate: O=C(O)C(=O)[C@@H](O)[C@H](O)C(=O)CO; assay: purified protein, by the assay type; format: biochemical, Corynebacterium sp.; conditions: other: Kb = Michaelis constant for 2,5-diketo-D-gluconic acid, cofactor NADH, pH 7.0, 25° C; remark: listed apart in the source
Experimental: The activities of the purified enzymes were assayed in 96-well microtiter plates on a plate reader.
Equation (1) is: [formula]
B=2,5-diketo-D-gluconic acid concentration;
Kb=Michaelis Constant for 2,5-diketo-D-gluconic acid;
Kia=Dissociation Constant for NADH;
Et=Total enzyme concentration.
However, the parameters could not be fit in this model with any accuracy, due to the large apparent value of KM for 2,5-diketo-D-gluconic acid, and the low concentration of 2,5-diketo-D-gluconic acid that was used. The 2,5-diketo-D-gluconic acid concentrations were not large enough to saturate the enzyme, so a further mathematical simplification was required. Preliminary fitting of the model indicated both kcat and Kb to be very large in comparison to Ka and Kia Therefore, the rate equation was simplified to the following equation (2): [formula]
This equation is only valid when B<<Kb.
This equation was then used to fit the kinetic data, with much better results.
Other comparisons can also be made between the different mutants using these parameters. […]
Cells containing plasmids for some of the mutant reductases were grown up on a 1 liter scale using a 10 ml inoculum from a saturated overnight culture. The cells were grown until absorbance of the culture at 600 nm was approximately 1.0. The cells were then induced by adding IPTG to a final concentration of 1 mM. The cells were harvested after growth at 37° C. for 4 hours. The cells were then pelleted by centrifugation and frozen for later use. At a later date, cells were thawed and lysed with the Bug Buster detergent (Novagen) containing Complete Protease Inhibitor Cocktail Tablets (Roche). The pH was lowered to 5.5 with 20 mM sodium acetate (NaOAc) and NaCl was added to a final concentration of 0.15 M. After 10 minutes with the detergent, the cell debris was removed by centrifugation, and the supernatant was loaded onto disposable chromatography columns containing a 10 ml bed volume of DEAE Cellulose (Sigma) for a batch weak ion exchange step. The resin was washed with 0.15 M NaCl, still in the presence of NaOAc, pH 5.5. The bound proteins were then eluted by two washes with 0.5 M NaCl. The eluted material was then diluted back to 0.15 M NaCl by the addition of more 20 mM NaOAc buffer. This was then loaded onto a 4.6 mmD/100mml PEEK column (PerSeptive Biosystems) containing 50 μm DEAE Ceramic HyperD F resin (BioSepra) using an FPLC system. The high performance resin was washed with 0.1 M NaCl and the bound proteins were eluted using a linear salt gradient up to 0.4 M NaCl. Active fractions were pooled and the pH was raised to 7.0 using 50 mM bis-Tris. The pooled fractions were then concentrated by ultrafiltration in a stirred cell unit using a polyethersulfone membrane with a 10,000 MW cut-off (Millipore). The concentrate was loaded onto a Superdex-75 gel filtration column (Pharmacia) using 50 mM bis-Tris pH 7.0 with an FPLC system. The active fractions were again pooled. A small sample from the pooled fractions was electrophoresed on a polyacrylamide gel in the presence of SDS in order to insure homogeneity of the final product.
NADPH and NADH were prepared fresh for each use in kinetic measurements. These reactions were performed in 96-well microtiter plates using a SpectraMax 190 plate reader (Molecular Devices). Varying amounts of cofactor and substrate were added to the wells and reaction was initiated by the addition of the mutant enzyme. The final volume of each reaction was 200 μl, the reactions were buffered with 50 mM bis-Tris pH 7.0, and the temperature was held at 25° C. […] Initial rate data was collected in each well, and a standard curve was generated each day in order to correlate the change in absorbance of the reaction to a change in concentration of cofactors. All measurements were performed in triplicate (at least) and the runs were averaged for use in kinetic modeling.

Protein	kcat/Km [1]	kcat/Km [2]
2,5-diketo-D-gluconic acid reductase A (Corynebacterium sp., wild type SEQ ID NO:1) variant K232M (Corynebacterium sp. ATCC 31090; K232M) (protein, GroES fragment (N); made in house; host or cells: E. coli JM109) MTVPSIVLNDGNSIPQLGYGVFKVPPADTQRAVEEALEVGYRHIDTAAIYGNEEGVGAAIAASGIARDDLFITTKLWNDRHDGDEPAAAIAESLAKLALDQVDLYLVHWPTPAADNYVHAWEKMIELRAAGLTRSIGVSNHLVPHLERIVAATGVVPAVNQIELHPAYQQREITDWAAAHDVKIESWGPLGQGKYDLFGAEPVTAAAAAHGKTPAQAVLRWHLQKGFVVFPMSVRRERLEENLDVFDFDLTDTEIAAIDAMDPGDGSGRVSAHPDEVD	0.593 ± 0.023 min^−1/mm^−1	
2,5-diketo-D-gluconic acid reductase A (Corynebacterium sp., wild type SEQ ID NO:1) variant R238H (Corynebacterium sp. ATCC 31090; R238H) (protein, GroES fragment (N); made in house; host or cells: E. coli JM109) MTVPSIVLNDGNSIPQLGYGVFKVPPADTQRAVEEALEVGYRHIDTAAIYGNEEGVGAAIAASGIARDDLFITTKLWNDRHDGDEPAAAIAESLAKLALDQVDLYLVHWPTPAADNYVHAWEKMIELRAAGLTRSIGVSNHLVPHLERIVAATGVVPAVNQIELHPAYQQREITDWAAAHDVKIESWGPLGQGKYDLFGAEPVTAAAAAHGKTPAQAVLRWHLQKGFVVFPKSVRREHLEENLDVFDFDLTDTEIAAIDAMDPGDGSGRVSAHPDEVD		3.87 ± 0.13 min^−1/mm^−1
2,5-diketo-D-gluconic acid reductase A, wild type, Corynebacterium sp. (ATCC Strain No. 31090; Genbank Accession No. 4699594; SEQ ID NO:1) (Corynebacterium sp. … (protein, GroES fragment (N); made in house; host or cells: E. coli JM109) MTVPSIVLNDGNSIPQLGYGVFKVPPADTQRAVEEALEVGYRHIDTAAIYGNEEGVGAAIAASGIARDDLFITTKLWNDRHDGDEPAAAIAESLAKLALDQVDLYLVHWPTPAADNYVHAWEKMIELRAAGLTRSIGVSNHLVPHLERIVAATGVVPAVNQIELHPAYQQREITDWAAAHDVKIESWGPLGQGKYDLFGAEPVTAAAAAHGKTPAQAVLRWHLQKGFVVFPKSVRRERLEENLDVFDFDLTDTEIAAIDAMDPGDGSGRVSAHPDEVD		0.724 ± 0.026 min^−1/mm^−1
2,5-diketo-D-gluconic acid reductase A (Corynebacterium sp., wild type SEQ ID NO:1) variant K232Q (Corynebacterium sp. ATCC 31090; K232Q) (protein, GroES fragment (N); made in house; host or cells: E. coli JM109) MTVPSIVLNDGNSIPQLGYGVFKVPPADTQRAVEEALEVGYRHIDTAAIYGNEEGVGAAIAASGIARDDLFITTKLWNDRHDGDEPAAAIAESLAKLALDQVDLYLVHWPTPAADNYVHAWEKMIELRAAGLTRSIGVSNHLVPHLERIVAATGVVPAVNQIELHPAYQQREITDWAAAHDVKIESWGPLGQGKYDLFGAEPVTAAAAAHGKTPAQAVLRWHLQKGFVVFPQSVRRERLEENLDVFDFDLTDTEIAAIDAMDPGDGSGRVSAHPDEVD	0.634 ± 0.037 min^−1/mm^−1	
2,5-diketo-D-gluconic acid reductase A (Corynebacterium sp., wild type SEQ ID NO:1) variant R235G (Corynebacterium sp. ATCC 31090; R235G) (protein, GroES fragment (N); made in house; host or cells: E. coli JM109) MTVPSIVLNDGNSIPQLGYGVFKVPPADTQRAVEEALEVGYRHIDTAAIYGNEEGVGAAIAASGIARDDLFITTKLWNDRHDGDEPAAAIAESLAKLALDQVDLYLVHWPTPAADNYVHAWEKMIELRAAGLTRSIGVSNHLVPHLERIVAATGVVPAVNQIELHPAYQQREITDWAAAHDVKIESWGPLGQGKYDLFGAEPVTAAAAAHGKTPAQAVLRWHLQKGFVVFPKSVGRERLEENLDVFDFDLTDTEIAAIDAMDPGDGSGRVSAHPDEVD		3.58 ± 0.023 min^−1/mm^−1
2,5-diketo-D-gluconic acid reductase A (Corynebacterium sp., wild type SEQ ID NO:1) variant R238E (Corynebacterium sp. ATCC 31090; R238E) (protein, GroES fragment (N); made in house; host or cells: E. coli JM109) MTVPSIVLNDGNSIPQLGYGVFKVPPADTQRAVEEALEVGYRHIDTAAIYGNEEGVGAAIAASGIARDDLFITTKLWNDRHDGDEPAAAIAESLAKLALDQVDLYLVHWPTPAADNYVHAWEKMIELRAAGLTRSIGVSNHLVPHLERIVAATGVVPAVNQIELHPAYQQREITDWAAAHDVKIESWGPLGQGKYDLFGAEPVTAAAAAHGKTPAQAVLRWHLQKGFVVFPKSVRREELEENLDVFDFDLTDTEIAAIDAMDPGDGSGRVSAHPDEVD		1.49 ± 0.24 min^−1/mm^−1
2,5-diketo-D-gluconic acid reductase A (Corynebacterium sp., wild type SEQ ID NO:1) variant K232S (Corynebacterium sp. ATCC 31090; K232S) (protein, GroES fragment (N); made in house; host or cells: E. coli JM109) MTVPSIVLNDGNSIPQLGYGVFKVPPADTQRAVEEALEVGYRHIDTAAIYGNEEGVGAAIAASGIARDDLFITTKLWNDRHDGDEPAAAIAESLAKLALDQVDLYLVHWPTPAADNYVHAWEKMIELRAAGLTRSIGVSNHLVPHLERIVAATGVVPAVNQIELHPAYQQREITDWAAAHDVKIESWGPLGQGKYDLFGAEPVTAAAAAHGKTPAQAVLRWHLQKGFVVFPSSVRRERLEENLDVFDFDLTDTEIAAIDAMDPGDGSGRVSAHPDEVD		0.318 ± 0.018 min^−1/mm^−1
2,5-diketo-D-gluconic acid reductase A (Corynebacterium sp., wild type SEQ ID NO:1) variant R235T (Corynebacterium sp. ATCC 31090; R235T) (protein, GroES fragment (N); made in house; host or cells: E. coli JM109) MTVPSIVLNDGNSIPQLGYGVFKVPPADTQRAVEEALEVGYRHIDTAAIYGNEEGVGAAIAASGIARDDLFITTKLWNDRHDGDEPAAAIAESLAKLALDQVDLYLVHWPTPAADNYVHAWEKMIELRAAGLTRSIGVSNHLVPHLERIVAATGVVPAVNQIELHPAYQQREITDWAAAHDVKIESWGPLGQGKYDLFGAEPVTAAAAAHGKTPAQAVLRWHLQKGFVVFPKSVTRERLEENLDVFDFDLTDTEIAAIDAMDPGDGSGRVSAHPDEVD		1.34 ± 0.28 min^−1/mm^−1
2,5-diketo-D-gluconic acid reductase A (Corynebacterium sp., wild type SEQ ID NO:1) variant K232G (Corynebacterium sp. ATCC 31090; K232G) (protein, GroES fragment (N); made in house; host or cells: E. coli JM109) MTVPSIVLNDGNSIPQLGYGVFKVPPADTQRAVEEALEVGYRHIDTAAIYGNEEGVGAAIAASGIARDDLFITTKLWNDRHDGDEPAAAIAESLAKLALDQVDLYLVHWPTPAADNYVHAWEKMIELRAAGLTRSIGVSNHLVPHLERIVAATGVVPAVNQIELHPAYQQREITDWAAAHDVKIESWGPLGQGKYDLFGAEPVTAAAAAHGKTPAQAVLRWHLQKGFVVFPGSVRRERLEENLDVFDFDLTDTEIAAIDAMDPGDGSGRVSAHPDEVD		0.874 ± 0.028 min^−1/mm^−1
